Reference: FireProtDB (doi:10.1093/protein/gzu024)

Conditions: Homo sapiens; pH 7.4; 23 °C; GdnSCN; fluorescence; Potassium phosphate buffer; NaCl; transition: 2; reversible: yes; structure 1TEN

Row | Substance | denaturant m value | denaturant midpoint (higher = more stable) | unfolding free energy
1 | Tenascin, P24821 T888C E870C I833C S875C | 4.17 kcal/mol/M | 1.79 M | 7.44 kcal/mol

Same assay, conditions: Homo sapiens; pH 7.4; Thermal; DSC; Potassium phosphate buffer; NaCl; transition: 2; reversible: yes; structure 1TEN

Row | Substance | Tm | change of melting temperature, mutant - wild type (higher = more stable)
2 | Tenascin, P24821 A885V | 59.8 °C | 1.1 °C
3 | Tenascin, P24821 D850K | 63.7 °C | 5 °C
4 | Tenascin, P24821 E887I | 69.9 °C | 11.2 °C
5 | Tenascin, P24821 E887I T890K | 74.9 °C | 16.2 °C
6 | Tenascin, P24821 E887I T890K D850K | 80.5 °C | 21.8 °C
7 | Tenascin, P24821 E887I T890K D850K I833F | 82.6 °C | 23.9 °C
8 | Tenascin, P24821 I833F | 61 °C | 2.3 °C
9 | Tenascin, P24821 L820K | 56.7 °C | -2 °C
10 | Tenascin, P24821 Q808K | 59.9 °C | 1.2 °C
11 | Tenascin, P24821 T888C E870C I833C S875C | 80.6 °C | –
12 | Tenascin, P24821 T890K | 63.9 °C | 5.2 °C
13 | Tenascin, P24821 V811C I821C | 50.6 °C | –
